# Data from patent US20240245796A1 (PROFOUNDBIO US, published 2024).
# Key:
# [1] = biological target: T1, human FOLR1 extracellular domain linked to His tag (human, UniProt P15328 25-233, limits assumed); experiment: BLI, Ag 500 nM over Ab on anti-hIgG Fc tip
# T1 construct: extracellular domain; It may be the same product as m13; also called Hu-FRα; Hu-Ag; not shown: His tag
# [2] = biological target: T1, human FOLR1 extracellular domain linked …; experiment: BLI, global 1:1 fit (500 nM row)
# [3] = biological target: T2, human FOLR2 extracellular domain linked to His tag (human, UniProt P14207 17-230, limits assumed); experiment: BLI, global 1:1 fit (500 nM row)
# T2 construct: extracellular domain; Antigen in solution in BLI; also called Hu-FRb; not shown: His tag
# [4] = biological target: T3, cynomolgus monkey FOLR1 extracellular domain linked to His tag (cynomolgus monkey, UniProt A0A2K5U044 25-233); experiment: BLI, Ag 7.82 nM over Ab on anti-hIgG Fc tip
# T3 construct: extracellular domain; Antigen in solution in BLI; It may be the same product as m14; also called Cyno-Ag; not shown: His tag
# [5] = biological target: T1, human FOLR1 extracellular domain linked …; experiment: BLI, Ag 7.82 nM over Ab on anti-hIgG Fc tip
# [6] = biological target: T4, rat FOLR1 extracellular domain linked to His tag (rat); experiment: BLI, global 1:1 fit (15.6 nM row); all responses below quantification
# T4 construct: extracellular domain; Antigen in solution in BLI; also called Rat-Ag
# [7] = biological target: T4, rat FOLR1 extracellular domain linked …; experiment: BLI, global 1:1 fit (62.5 nM row); all responses below quantification
# [8] = biological target: T3, cynomolgus monkey FOLR1 extracellular …; experiment: BLI, global 1:1 fit (62.5 nM row)
# [9] = biological target: T1, human FOLR1 extracellular domain linked …; experiment: BLI, global 1:1 fit (62.5 nM row)
# [10] = biological target: T5, mouse FOLR1 extracellular domain linked to His tag (mouse, UniProt P35846 25-232, limits assumed); experiment: BLI, global 1:1 fit (15.6 nM row); only the 500 nM response quantifiable
# T5 construct: extracellular domain; Antigen in solution in BLI; also called Mouse-Ag; not shown: His tag
# [11] = biological target: T3, cynomolgus monkey FOLR1 extracellular …; experiment: BLI, Ag 62.5 nM over Ab on anti-hIgG Fc tip
# [12] = biological target: T1, human FOLR1 extracellular domain linked …; experiment: BLI, Ag 62.5 nM over Ab on anti-hIgG Fc tip
# [13] = biological target: T3, cynomolgus monkey FOLR1 extracellular …; experiment: BLI, global 1:1 fit (7.82 nM row)
# [14] = biological target: T1, human FOLR1 extracellular domain linked …; experiment: BLI, global 1:1 fit (7.82 nM row)
# [15] = biological target: T5, mouse FOLR1 extracellular domain linked …; experiment: BLI, global 1:1 fit (31.3 nM row); only the 500 nM response quantifiable
# [16] = biological target: T4, rat FOLR1 extracellular domain linked …; experiment: BLI, Ag 62.5 nM; * = below range of quantification
# [17] = biological target: T6, human FOLR3 extracellular domain linked to His tag (human, UniProt P41439 23-245, limits assumed); experiment: BLI, global 1:1 fit (125 nM row); all responses below quantification
# T6 construct: extracellular domain; Antigen in solution in BLI; also called Hu-FRg; not shown: His tag
# [18] = biological target: T4, rat FOLR1 extracellular domain linked …; experiment: BLI, global 1:1 fit (31.3 nM row); all responses below quantification
# [19] = biological target: T4, rat FOLR1 extracellular domain linked …; experiment: BLI, global 1:1 fit (7.82 nM row); all responses below quantification
# [20] = biological target: T1, human FOLR1 extracellular domain linked …; experiment: BLI, global 1:1 fit (62.5 nM row); remark: listed apart in the source
# [21] = biological target: T2, human FOLR2 extracellular domain linked …; experiment: BLI, global 1:1 fit (62.5 nM row)
# [22] = biological target: T3, cynomolgus monkey FOLR1 extracellular …; experiment: BLI, global 1:1 fit (500 nM row)
# [23] = biological target: T1, human FOLR1 extracellular domain linked …; experiment: BLI, global 1:1 fit (500 nM row); remark: listed apart in the source
# T2 sequence (P14207 17-230 limits assumed): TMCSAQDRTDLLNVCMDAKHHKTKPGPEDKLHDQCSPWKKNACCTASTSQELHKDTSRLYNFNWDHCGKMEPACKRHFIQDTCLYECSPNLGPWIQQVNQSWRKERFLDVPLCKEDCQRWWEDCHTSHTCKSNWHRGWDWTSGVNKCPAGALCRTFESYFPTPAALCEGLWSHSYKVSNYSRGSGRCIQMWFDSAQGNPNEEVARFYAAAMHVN
# T1 sequence (P15328 25-233 limits assumed): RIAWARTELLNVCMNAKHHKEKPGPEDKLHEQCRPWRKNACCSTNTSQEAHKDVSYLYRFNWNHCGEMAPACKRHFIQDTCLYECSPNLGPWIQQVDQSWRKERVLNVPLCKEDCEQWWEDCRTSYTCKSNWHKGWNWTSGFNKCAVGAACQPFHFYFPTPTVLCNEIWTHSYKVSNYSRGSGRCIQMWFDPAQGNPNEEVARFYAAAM
# T5 sequence (P35846 25-232 limits assumed): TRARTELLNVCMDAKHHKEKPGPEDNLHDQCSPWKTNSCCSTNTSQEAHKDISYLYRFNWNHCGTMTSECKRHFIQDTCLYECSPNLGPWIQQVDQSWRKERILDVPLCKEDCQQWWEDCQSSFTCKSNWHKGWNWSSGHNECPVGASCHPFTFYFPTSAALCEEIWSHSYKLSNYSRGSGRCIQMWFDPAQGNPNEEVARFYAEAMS
# T3 sequence (A0A2K5U044 entry or part of it): as the sequence (P15328 25-233 limits assumed) above, with I2T, W4R, R37K, A146P, H171Y counted along it
# T6 sequence (P41439 23-245 limits assumed): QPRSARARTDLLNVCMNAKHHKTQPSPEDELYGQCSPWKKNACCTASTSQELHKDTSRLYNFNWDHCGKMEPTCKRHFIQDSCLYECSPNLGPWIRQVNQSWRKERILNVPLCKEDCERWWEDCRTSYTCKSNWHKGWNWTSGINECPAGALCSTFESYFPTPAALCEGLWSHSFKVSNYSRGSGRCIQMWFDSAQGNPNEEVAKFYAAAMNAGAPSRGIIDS
binder,measurement,setting,value
"F131 (antibody, V domains shown, also called clone F131; F131 mAb) VH: EVQLLESGGGVVQPGRSLRLSCAASGFTFSSYGMHWVRQAPGKGLEWVAVISYDGSNKYYADSVKGRFTISRANSKNTLYLQMNSLRAEDTAVYYCARPRAYYGAYGSSFDYWGQGTQVTVSS VL: EIVMTQSPSSVSASVGDRVAITCRASQGISSWLAWYQQKPGKAPKLLIYAASSLQSGVPSRFSGSGSGTDFTLTISSLQPEDFATYYCQQSYSTPLTFGGGTKVDIK",Response,[1],0.192
same,koff,[2],0.0012 s⁻¹
same,kon,[2],226000 M⁻¹ s⁻¹
same,Kd,[3],142 nM
same,koff,[3],0.0784 s⁻¹
same,kon,[3],552000 M⁻¹ s⁻¹
same,Response,[4],0.0537
same,Response,[5],0.04
same,koff,[6],1.03 s⁻¹
same,kon,[6],5490 M⁻¹ s⁻¹
same,koff,[7],1.03 s⁻¹
same,kon,[7],5490 M⁻¹ s⁻¹
same,Kd,[8],8.15 nM
same,koff,[8],0.00157 s⁻¹
same,kon,[8],193000 M⁻¹ s⁻¹
same,Kd,[9],1.53 nM
same,koff,[9],0.000338 s⁻¹
same,kon,[9],221000 M⁻¹ s⁻¹
same,Kd,[10],2960 nM
same,koff,[10],0.301 s⁻¹
same,kon,[10],102000 M⁻¹ s⁻¹
same,Response,[11],0.14
same,Response,[12],0.12
same,Kd,[13],8.15 nM
same,koff,[13],0.00157 s⁻¹
same,kon,[13],193000 M⁻¹ s⁻¹
same,Kd,[14],1.53 nM
same,koff,[14],0.000338 s⁻¹
same,kon,[14],221000 M⁻¹ s⁻¹
same,Kd,[15],2960 nM
same,koff,[15],0.301 s⁻¹
same,kon,[15],102000 M⁻¹ s⁻¹
same,Response,[16],-0.00606
same,koff,[17],0.217 s⁻¹
same,kon,[17],1660 M⁻¹ s⁻¹
same,koff,[18],1.03 s⁻¹
same,kon,[18],5490 M⁻¹ s⁻¹
same,koff,[19],1.03 s⁻¹
same,kon,[19],5490 M⁻¹ s⁻¹
same,Kd,[20],5.3 nM
same,koff,[20],0.0012 s⁻¹
same,kon,[20],226000 M⁻¹ s⁻¹
same,Kd,[21],142 nM
same,koff,[21],0.0784 s⁻¹
same,kon,[21],552000 M⁻¹ s⁻¹
same,Kd,[22],8.15 nM
same,koff,[22],0.00157 s⁻¹
same,kon,[22],193000 M⁻¹ s⁻¹
same,koff,[23],0.000338 s⁻¹
same,kon,[23],221000 M⁻¹ s⁻¹
"F131-LD038 (antibody, V domains shown, drug-linker LD038 (PB038, maleimide-PEG unit-Val-Cit-PAB-exatecan) on cysteines freed by TCEP reduction; positions not given, Antibody-drug conjugate of F131 (IgG1) with LD038; also called anti-huFOLR-1 conjugate F131-LD038; F131-038) VH: EVQLLESGGGVVQPGRSLRLSCAASGFTFSSYGMHWVRQAPGKGLEWVAVISYDGSNKYYADSVKGRFTISRANSKNTLYLQMNSLRAEDTAVYYCARPRAYYGAYGSSFDYWGQGTQVTVSS VL: EIVMTQSPSSVSASVGDRVAITCRASQGISSWLAWYQQKPGKAPKLLIYAASSLQSGVPSRFSGSGSGTDFTLTISSLQPEDFATYYCQQSYSTPLTFGGGTKVDIK",Response,[1],0.222
same,Kd,[2],4.79 nM
same,koff,[2],0.00121 s⁻¹
same,kon,[2],252000 M⁻¹ s⁻¹
same,Kd,[3],84.4 nM
same,koff,[3],0.0813 s⁻¹
same,kon,[3],963000 M⁻¹ s⁻¹
same,Response,[4],0.0225
same,Response,[5],0.0342
same,koff,[6],0.224 s⁻¹
same,kon,[6],2.64e+06 M⁻¹ s⁻¹
same,koff,[7],0.224 s⁻¹
same,kon,[7],2.64e+06 M⁻¹ s⁻¹
same,Kd,[8],8.82 nM
same,koff,[8],0.0016 s⁻¹
same,kon,[8],181000 M⁻¹ s⁻¹
same,Kd,[9],4.8 nM
same,koff,[9],0.00107 s⁻¹
same,kon,[9],224000 M⁻¹ s⁻¹
same,Kd,[10],2870 nM
same,koff,[10],0.266 s⁻¹
same,kon,[10],92600 M⁻¹ s⁻¹
same,Response,[11],0.121
same,Response,[12],0.129
same,Kd,[13],8.82 nM
same,koff,[13],0.0016 s⁻¹
same,kon,[13],181000 M⁻¹ s⁻¹
same,Kd,[14],4.8 nM
same,koff,[14],0.00107 s⁻¹
same,kon,[14],224000 M⁻¹ s⁻¹
same,Kd,[15],2870 nM
same,koff,[15],0.266 s⁻¹
same,kon,[15],92600 M⁻¹ s⁻¹
same,Response,[16],-0.00393
same,koff,[17],0.233 s⁻¹
same,koff,[18],0.224 s⁻¹
same,kon,[18],2.64e+06 M⁻¹ s⁻¹
same,koff,[19],0.224 s⁻¹
same,kon,[19],2.64e+06 M⁻¹ s⁻¹
same,Kd,[20],4.79 nM
same,koff,[20],0.00121 s⁻¹
same,kon,[20],252000 M⁻¹ s⁻¹
same,Kd,[21],84.4 nM
same,koff,[21],0.0813 s⁻¹
same,kon,[21],963000 M⁻¹ s⁻¹
same,Kd,[22],8.82 nM
same,koff,[22],0.0016 s⁻¹
same,kon,[22],181000 M⁻¹ s⁻¹
same,Kd,[23],4.8 nM
same,koff,[23],0.00107 s⁻¹
same,kon,[23],224000 M⁻¹ s⁻¹
